According to IntAct's records for PubMed 31515488:

B1: F-box/WD repeat-containing protein 1A (Homo sapiens), Q9Y297 (parent)
chain: MDPAEAVLQEKALKFMCSMPRSLWLGCSSLADSMPSLRCLYNPGTGALTAFQNSSEREDCNNGEPPRKIIPEKNSLRQTYNSCARLCLNQETVCLASTAMKTENCVAKTKLANGTSSMIVPKQRKLSASYEKEKELCVKYFEQWSESDQVEFVEHLISQMCHYQHGHINSYLKPMLQRDFITALPARGLDHIAENILSYLDAKSLCAAELVCKEWYRVTSDGMLWKKLIERMVRTDSLWRGLAERRGWGQYLFKNKPPDGNAPPNSFYRALYPKIIQDIETIESNWRCGRHSLQRIHCRSETSKGVYCLQYDDQKIVSGLRDNTIKIWDKNTLECKRILTGHTGSVLCLQYDERVIITGSSDSTVRVWDVNTGEMLNTLIHHCEAVLHLRFNNGMMVTCSKDRSIAVWDMASPTDITLRRVLVGHRAAVNVVDFDDKYIVSASGDRTIKVWNTSTCEFVRTLNGHKRGIACLQYRDRLVVSGSSDNTIRLWDIECGACLRVLEGHEELVRCIRFDNKRIVSGAYDGKIKVWDLVAALDPRAPAGTLCLRTLVEHSGRVFRLQFDEFQIVSSSHDDTILIWDFLNDPAAQAEPPRSPSRTYTYISR
partner: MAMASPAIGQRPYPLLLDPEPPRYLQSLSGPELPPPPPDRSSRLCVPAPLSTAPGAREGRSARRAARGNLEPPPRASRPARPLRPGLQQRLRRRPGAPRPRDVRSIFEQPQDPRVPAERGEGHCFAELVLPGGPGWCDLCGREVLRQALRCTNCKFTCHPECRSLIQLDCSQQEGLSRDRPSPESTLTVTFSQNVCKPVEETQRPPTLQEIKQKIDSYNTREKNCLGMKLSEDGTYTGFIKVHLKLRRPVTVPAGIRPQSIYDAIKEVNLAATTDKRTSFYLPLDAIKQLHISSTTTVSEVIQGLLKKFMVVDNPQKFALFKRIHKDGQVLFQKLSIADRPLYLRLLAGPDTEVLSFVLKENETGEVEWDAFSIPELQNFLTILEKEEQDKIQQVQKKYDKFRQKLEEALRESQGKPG
B2: Protein DBF4 homolog B (Homo sapiens), Q8NFT6 (parent)
chain: MSEPGKGDDCLELESSMAESRLRAPDLGVSRCLGKCQKNSPGARKHPFSGKSFYLDLPAGKNLQFLTGAIQQLGGVIEGFLSKEVSYIVSSRREVKAESSGKSHRGCPSPSPSEVRVETSAMVDPKGSHPRPSRKPVDSVPLSRGKELLQKAIRNQGSISGGGSGGSSSLLTNARSWGVRILHVDEMMMHVQQLSLASLCVKKQQPKKPEGTCPAAESRTRKVARLKAPFLKIEDESRKFRPFHHQFKSFPEISFLGPKDASPFEAPTTLGSMHHTRESKDGEPSPRSAAHTMPRRKKGYCECCQEAFEELHVHLQSAQHRSFALEAHLYAEVDRIIAQLSHSFADIPFQAGLPRWSGSPASDCDPLCPETLHPHQPSHPRAASPRIRKEDSCQASVTQGRAAGQQRWTESLDGVMGPPASHTCVSATTLLPALPKGSREQGCLCPCPASFTQSHLVTSLALLPGEWSPAEDMPLHPSQENSFAPADIPVKGPLLFPEARPWLMSARCWVRPFPFVTWGCLIPHDTTPLHEEVSPCPCLRLGYLYLLLTQSLWCRVRVPSLSTAGPIPRTSHPCTLAFPSYLNDHDLGHLCQAKPQGWNTPQPFLHCGFLAVDSG
partner: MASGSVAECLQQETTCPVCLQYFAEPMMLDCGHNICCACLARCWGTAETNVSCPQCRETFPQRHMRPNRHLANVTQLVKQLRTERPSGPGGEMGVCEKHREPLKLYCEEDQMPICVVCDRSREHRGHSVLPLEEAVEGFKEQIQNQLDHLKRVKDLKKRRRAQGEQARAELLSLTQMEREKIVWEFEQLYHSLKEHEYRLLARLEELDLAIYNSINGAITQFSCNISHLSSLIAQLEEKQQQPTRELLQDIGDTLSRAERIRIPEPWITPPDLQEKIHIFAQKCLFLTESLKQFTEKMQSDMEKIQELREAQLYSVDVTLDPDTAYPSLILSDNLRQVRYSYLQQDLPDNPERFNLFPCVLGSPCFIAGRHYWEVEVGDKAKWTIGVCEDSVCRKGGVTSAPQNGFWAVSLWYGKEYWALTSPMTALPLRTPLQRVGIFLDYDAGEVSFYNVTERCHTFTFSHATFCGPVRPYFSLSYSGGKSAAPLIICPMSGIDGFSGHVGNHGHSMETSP
B3: Protein phosphatase 1 regulatory inhibitor subunit 16B (Homo sapiens), Q96T49 (parent)
chain: MASHVDLLTELQLLEKVPTLERLRAAQKRRAQQLKKWAQYEQDLQHRKRKHERKRSTGGRRKKVSFEASVALLEASLRNDAEEVRYFLKNKVSPDLCNEDGLTALHQCCIDNFEEIVKLLLSHGANVNAKDNELWTPLHAAATCGHINLVKILVQYGADLLAVNSDGNMPYDLCEDEPTLDVIETCMAYQGITQEKINEMRVAPEQQMIADIHCMIAAGQDLDWIDAQGATLLHIAGANGYLRAAELLLDHGVRVDVKDWDGWEPLHAAAFWGQMQMAELLVSHGASLSARTSMDEMPIDLCEEEEFKVLLLELKHKHDVIMKSQLRHKSSLSRRTSSAGSRGKVVRRASLSDRTNLYRKEYEGEAILWQRSAAEDQRTSTYNGDIRETRTDQENKDPNPRLEKPVLLSEFPTKIPRGELDMPVENGLRAPVSAYQYALANGDVWKVHEVPDYSMAYGNPGVADATPPWSSYKEQSPQTLLELKRQRAAAKLLSHPFLSTHLGSSMARTGESSSEGKAPLIGGRTSPYSSNGTSVYYTVTSGDPPLLKFKAPIEEMEEKVHGCCRIS
partner: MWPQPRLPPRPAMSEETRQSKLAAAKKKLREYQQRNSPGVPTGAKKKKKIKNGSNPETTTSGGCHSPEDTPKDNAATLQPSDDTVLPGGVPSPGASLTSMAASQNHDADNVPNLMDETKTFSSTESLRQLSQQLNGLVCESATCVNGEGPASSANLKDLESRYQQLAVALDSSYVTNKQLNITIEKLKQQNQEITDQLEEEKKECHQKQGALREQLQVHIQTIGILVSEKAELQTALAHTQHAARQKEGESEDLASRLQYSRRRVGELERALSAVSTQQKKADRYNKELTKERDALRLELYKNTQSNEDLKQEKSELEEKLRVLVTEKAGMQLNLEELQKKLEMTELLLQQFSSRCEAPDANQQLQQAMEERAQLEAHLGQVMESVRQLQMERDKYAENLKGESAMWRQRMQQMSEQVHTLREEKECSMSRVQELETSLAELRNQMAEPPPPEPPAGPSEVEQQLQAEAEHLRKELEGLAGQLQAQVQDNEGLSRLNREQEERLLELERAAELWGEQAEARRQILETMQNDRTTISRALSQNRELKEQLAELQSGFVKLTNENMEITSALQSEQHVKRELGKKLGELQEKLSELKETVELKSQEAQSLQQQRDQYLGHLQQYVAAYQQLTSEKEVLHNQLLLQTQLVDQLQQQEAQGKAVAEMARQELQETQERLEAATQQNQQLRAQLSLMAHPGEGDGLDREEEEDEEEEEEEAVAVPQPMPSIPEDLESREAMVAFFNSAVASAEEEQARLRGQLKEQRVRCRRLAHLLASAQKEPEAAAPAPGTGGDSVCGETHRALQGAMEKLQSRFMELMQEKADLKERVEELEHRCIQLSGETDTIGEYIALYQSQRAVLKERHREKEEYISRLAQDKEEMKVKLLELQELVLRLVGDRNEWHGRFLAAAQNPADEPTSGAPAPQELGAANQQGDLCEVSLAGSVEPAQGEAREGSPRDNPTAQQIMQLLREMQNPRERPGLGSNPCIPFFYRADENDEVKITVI
B4: PDZ and LIM domain protein 5 (Homo sapiens), Q96HC4 (parent)
chain: MSNYSVSLVGPAPWGFRLQGGKDFNMPLTISSLKDGGKAAQANVRIGDVVLSIDGINAQGMTHLEAQNKIKGCTGSLNMTLQRASAAPKPEPVPVQKGEPKEVVKPVPITSPAVSKVTSTNNMAYNKAPRPFGSVSSPKVTSIPSPSSAFTPAHATTSSHASPSPVAAVTPPLFAASGLHANANLSADQSPSALSAGKTAVNVPRQPTVTSVCSETSQELAEGQRRGSQGDSKQQNGPPRKHIVERYTEFYHVPTHSDASKKRLIEDTEDWRPRTGTTQSRSFRILAQITGTEHLKESEADNTKKANNSQEPSPQLASSVASTRSMPESLDSPTSGRPGVTSLTAAAAFKPVGSTGVIKSPSWQRPNQGVPSTGRISNSATYSGSVAPANSALGQTQPSDQDTLVQRAEHIPAGKRTPMCAHCNQVIRGPFLVALGKSWHPEEFNCAHCKNTMAYIGFVEEKGALYCELCYEKFFAPECGRCQRKILGEVISALKQTWHVSCFVCVACGKPIRNNVFHLEDGEPYCETDYYALFGTICHGCEFPIEAGDMFLEALGYTWHDTCFVCSVCCESLEGQTFFSKKDKPLCKKHAHSVNF

Variants of: B1
Settings: with rasf5_human RASSF5, Q8WWW0

Variant | effect of a mutation on the interaction
T601S | with no effect

Variants of: B2
Settings: with tri27_human TRIM27, P14373

Variant | effect of a mutation on the interaction
L199S | with no effect

Variants of: B3
Settings: with goga2_human GOLGA2, Q08379

Variant | effect of a mutation on the interaction
P519S | with no effect

Variants of: B4
Settings: with cc136_human CCDC136, Q96JN2
cc136_human CCDC136, Q96JN2, sequence (Q96JN2 whole entry): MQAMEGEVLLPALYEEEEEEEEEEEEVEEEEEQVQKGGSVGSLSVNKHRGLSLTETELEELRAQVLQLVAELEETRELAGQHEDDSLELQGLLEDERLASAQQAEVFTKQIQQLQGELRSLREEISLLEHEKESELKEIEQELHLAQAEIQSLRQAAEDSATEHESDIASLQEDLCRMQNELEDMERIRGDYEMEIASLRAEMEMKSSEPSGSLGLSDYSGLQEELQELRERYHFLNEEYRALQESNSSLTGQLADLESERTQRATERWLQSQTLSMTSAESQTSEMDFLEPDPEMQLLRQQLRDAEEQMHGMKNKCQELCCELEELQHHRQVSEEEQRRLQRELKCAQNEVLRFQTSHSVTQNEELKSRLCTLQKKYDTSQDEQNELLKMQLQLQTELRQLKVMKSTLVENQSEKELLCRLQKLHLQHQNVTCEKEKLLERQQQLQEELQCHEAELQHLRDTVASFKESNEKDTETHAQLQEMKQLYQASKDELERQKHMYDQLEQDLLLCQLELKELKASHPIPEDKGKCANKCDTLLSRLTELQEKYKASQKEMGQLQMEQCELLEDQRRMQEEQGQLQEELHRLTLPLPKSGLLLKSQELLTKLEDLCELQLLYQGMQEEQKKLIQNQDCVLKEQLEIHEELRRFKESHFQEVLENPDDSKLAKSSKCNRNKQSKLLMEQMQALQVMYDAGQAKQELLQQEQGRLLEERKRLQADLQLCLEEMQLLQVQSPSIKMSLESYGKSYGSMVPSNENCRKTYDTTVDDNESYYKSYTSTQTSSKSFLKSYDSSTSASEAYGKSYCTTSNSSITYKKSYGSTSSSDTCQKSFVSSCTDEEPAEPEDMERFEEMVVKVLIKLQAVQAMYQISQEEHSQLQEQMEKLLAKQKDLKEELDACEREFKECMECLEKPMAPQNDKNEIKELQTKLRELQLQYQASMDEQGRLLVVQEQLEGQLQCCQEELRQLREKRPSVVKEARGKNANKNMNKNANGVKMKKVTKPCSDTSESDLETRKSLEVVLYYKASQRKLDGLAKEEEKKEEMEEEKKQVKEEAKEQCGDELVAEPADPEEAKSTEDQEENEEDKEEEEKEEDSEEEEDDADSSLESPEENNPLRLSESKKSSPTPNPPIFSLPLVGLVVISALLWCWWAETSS

Variant | effect of a mutation on the interaction
P388S | with no effect
S136F | with no effect

Variants of: B4
Settings: with coil_human COIL

Variant | effect of a mutation on the interaction
P388S | with no effect
